Measurements: PMC7758880 (Molecular Cell, 2020)

T1: Smc6 with a triple StrepII tag (S. cerevisiae, UniProt Q12749 1-1114)
T1 sequence: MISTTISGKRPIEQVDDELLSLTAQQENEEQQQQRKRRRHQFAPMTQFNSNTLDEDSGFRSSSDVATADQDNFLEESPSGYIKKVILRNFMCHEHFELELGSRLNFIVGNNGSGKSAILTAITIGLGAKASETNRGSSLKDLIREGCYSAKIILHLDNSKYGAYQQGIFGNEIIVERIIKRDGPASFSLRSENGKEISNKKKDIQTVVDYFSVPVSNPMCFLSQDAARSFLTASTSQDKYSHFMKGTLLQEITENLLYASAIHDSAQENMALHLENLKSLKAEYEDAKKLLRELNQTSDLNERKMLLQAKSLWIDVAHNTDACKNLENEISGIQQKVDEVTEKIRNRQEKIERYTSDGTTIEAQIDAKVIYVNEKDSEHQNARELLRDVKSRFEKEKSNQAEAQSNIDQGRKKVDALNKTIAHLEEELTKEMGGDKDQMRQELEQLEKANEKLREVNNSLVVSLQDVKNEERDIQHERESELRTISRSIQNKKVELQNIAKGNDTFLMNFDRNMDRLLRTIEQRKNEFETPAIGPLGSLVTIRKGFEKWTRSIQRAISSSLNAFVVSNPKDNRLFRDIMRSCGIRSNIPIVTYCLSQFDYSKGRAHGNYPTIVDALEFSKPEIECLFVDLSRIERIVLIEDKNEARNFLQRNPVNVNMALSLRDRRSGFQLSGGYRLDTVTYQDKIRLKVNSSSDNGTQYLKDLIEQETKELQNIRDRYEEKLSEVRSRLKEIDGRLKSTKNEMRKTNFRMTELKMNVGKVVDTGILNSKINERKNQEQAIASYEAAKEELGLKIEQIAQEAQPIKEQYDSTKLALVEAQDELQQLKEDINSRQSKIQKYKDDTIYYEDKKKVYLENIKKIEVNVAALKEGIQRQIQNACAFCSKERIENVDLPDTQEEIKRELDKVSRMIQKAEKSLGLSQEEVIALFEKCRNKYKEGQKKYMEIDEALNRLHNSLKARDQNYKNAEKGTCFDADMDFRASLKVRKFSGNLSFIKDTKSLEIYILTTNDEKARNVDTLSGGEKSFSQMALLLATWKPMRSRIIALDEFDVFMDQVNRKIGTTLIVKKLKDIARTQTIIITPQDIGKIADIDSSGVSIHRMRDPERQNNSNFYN

B1: Nse4 with 8xHis and 3xHA tags (natural protein)
chain: MSSTVISRKRRNSTVTEPDSSGETRKQKKSRSDEKSSSSKDGDPQLEFKVLQGYRDLESEMHKGRAQVTRTGDIGVAMDNLNAVDSLFNKVIGIKNNGLFAHDARAMVSISELAQISVRNLKFDDSRSMVNLENIVNSLKRYMLKEHFKLNNIAENRNDLTLAADEQSAADQQEESDGDIDRTPDDNHTDKATSSFKATSMRHSYLQQFSHYNEFSQFNWFRIGALYNTISKNAPITDHLMGPLSIEKKPRVLTQRRRNNDQVGEKITAEKITQHSLNSTQQETTPEQVKKCFKKLSKKLGPEGSINLFKFIIDPNSFSRSIENLFYTSFLIKEGKLLMEHDEEGLPTIKIKQSISHTDSRSKEIERQRRRAAHQNHIIFQMDMPTWRKLIKKYNITSPFLD
B2: Nse3 (natural protein)
chain: MSSIDNDSDVDLTEDLAVAKIVKENPVARKMVRYILSRGESQNSIITRNKLQSVIHEAAREENIAKPSFSKMFMDINAILYNVYGFELQGLPSKNNMNAGGNGSNSNTNKSMPEPLGHRAQKFILLNNVPHSKNFDDFKILQSAHTYEELIVTGEYIGDDIASGTSNTLESKLSTDRDLVYKGVLSVILCIVFFSKNNILHQELIKFLETFGIPSDGSKIAILNITIEDLIKSLEKREYIVRLEEKSDTDGEVISYRIGRRTQAELGLESLEKLVQEIMGLEKEQTKSLHDDIIKSIGDSYSI
B3: Nse2 (enzyme)
chain: MALNDNPIPKSVPLHPKSGKYFHNLHARDLSNIYQQCYKQIDETINQLVDSTSPSTIGIEEQVADITSTYKLLSTYESESNSFDEHIKDLKKNFKQSSDACPQIDLSTWDKYRTGELTAPKLSELYLNMPTPEPATMVNNTDTLKILKVLPYIWNDPTCVIPDLQNPADEDDLQIEGGKIELTCPITCKPYEAPLISRKCNHVFDRDGIQNYLQGYTTRDCPQAACSQVVSMRDFVRDPIMELRCKIAKMKESQEQDKRSSQAIDVL
B4: Nse5 (natural protein)
chain: MDGALINSVLYVSPRNGAHYFVELTEKHLLAFEMLNSMCLLENYDHVLLFLECQFGKSHNLAVIPFDIILVLFTLSTLSEYYKEPILRANDPYNTSRETLSRRALKLLQKYLAILKEFDSEQYNLYDLELLRCQFFLAIDTLTPKKQKWGFDRFRRTKSESGVTYRQNASVDPELDQAKTFKNPYRSYISCLEQRNTILGNRLLNLKLNEPGEFINMILWTLSNSLQESTPLFLSSHEIWMPLLEILIDLFSCRQDYFIQHEVAQNVSKSLFVQRLSESPLAVFFESLNTRNFANRFSEYVFLNCDYKLPSDNYATPVHPVYNGENTIVDTYIPTIKCSPLYKSQKSLALRRKLIGSCFKLLLRVPDGHRLITPRIVADDVIQGISRTLASFNDILQFKKFFMTENLSQESYFIPLLAEGTLSEILKDTQECVVILTLVENLSDGVSFCNEVIGLVKSKCFAFTEQCSQASYEEAVLNIEKCDVCLLVLLRYLLHLIGTEAILDAKEQLEMLHAIEKNDSGRRQWAKALNLGNDPPLLYPIVSQMFGVHDKSVIIE
B5: Nse1 (natural protein)
chain: MEVHEEQVSAPVTGDATAKYLLQYILSARGICHENALILALMRLETDASTLNTEWSIQQWVDKLNDYINAINVKLNLLGYKIIRINHGIGRNAVTLKAKQNFESFEDNTAIRAHNNDYAVLQSIVLPESNRFFVYVNLASTEETKLATRFNQNEIEFMKWAIEQFMISGETIVEGPALETSIIVKEVNRILVAATGDSNLAKWRKFSTFTVGSTNLFQFQELTATDIEDLLLRLCELKWFYRTQEGKFGIDLRCIAELEEYLTSMYNLNTCQNCHKLAIQGVRCGNESCREENEETGENSLSQIWHVDCFKHYITHVSKNCDRCGSSLITEGVYVI
B6: Smc5 (natural protein)
chain: MTSLIDLGRYVERTHHGEDTEPRSKRVKIAKPDLSSFQPGSIIKIRLQDFVTYTLTEFNLSPSLNMIIGPNGSGKSTFVCAVCLGLAGKPEYIGRSKKVEDFIKNGQDVSKIEITLKNSPNVTDIEYIDARDETIKITRIITRSKRRSDYLINDYQVSESVVKTLVAQLNIQLDNLCQFLSQERVEEFARLKSVKLLVETIRSIDASLLDVLDELRELQGNEQSLQKDLDFKKAKIVHLRQESDKLRKSVESLRDFQNKKGEIELHSQLLPYVKVKDHKEKLNIYKEEYERAKANLRAILKDKKPFANTKKTLENQVEELTEKCSLKTDEFLKAKEKINEIFEKLNTIRDEVIKKKNQNEYYRGRTKKLQATIISTKEDFLRSQEILAQTHLPEKSVFEDIDIKRKEIINKEGEIRDLISEIDAKANAINHEMRSIQRQAESKTKSLTTTDKIGILNQDQDLKEVRDAVLMVREHPEMKDKILEPPIMTVSAINAQFAAYLAQCVDYNTSKALTVVDSDSYKLFANPILDKFKVNLRELSSADTTPPVPAETVRDLGFEGYLSDFITGDKRVMKMLCQTSKIHTIPVSRRELTPAQIKKLITPRPNGKILFKRIIHGNRLVDIKQSAYGSKQVFPTDVSIKQTNFYQGSIMSNEQKIRIENEIINLKNEYNDRKSTLDALSNQKSGYRHELSELASKNDDINREAHQLNEIRKKYTMRKSTIETLREKLDQLKREARKDVSQKIKDIDDQIQQLLLKQRHLLSKMASSMKSLKNCQKELISTQILQFEAQNMDVSMNDVIGFFNEREADLKSQYEDKKKFVKEMRDTPEFQSWMREIRSYDQDTKEKLNKVAEKYEEEGNFNLSFVQDVLDKLESEIAMVNHDESAVTILDQVTAELRELEHTVPQQSKDLETIKAKLKEDHAVLEPKLDDIVSKISARFARLFNNVGSAGAVRLEKPKDYAEWKIEIMVKFRDNAPLKKLDSHTQSGGERAVSTVLYMIALQEFTSAPFRVVDEINQGMDSRNERIVHKAMVENACAENTSQYFLITPKLLTGLHYHEKMRIHCVMAGSWIPNPSEDPKMIHFGETSNYSFD

Biological target: B6
Assay: cross-linking

Binding result, binds:
B1, B2, B3, B4, B5

Biological target: T1, Smc6 with a triple StrepII tag
Assay: cross-linking

Binding result, binds:
B1, B2, B3, B4, B5

Biological target: B1
Assay: cross-linking

Binding result, binds:
B2

Biological target: T1, Smc6 with a triple StrepII tag
Assay: affinity purification with mass spectrometry

Binding result, binds:
B6
